Reference: article PMC5839794 (The Journal of Cell Biology, 2018)

Target: T1, GST-ZW10 (full length GST-tagged human ZW10) (human, UniProt O43264 1-779)
T1 sequence (looked up): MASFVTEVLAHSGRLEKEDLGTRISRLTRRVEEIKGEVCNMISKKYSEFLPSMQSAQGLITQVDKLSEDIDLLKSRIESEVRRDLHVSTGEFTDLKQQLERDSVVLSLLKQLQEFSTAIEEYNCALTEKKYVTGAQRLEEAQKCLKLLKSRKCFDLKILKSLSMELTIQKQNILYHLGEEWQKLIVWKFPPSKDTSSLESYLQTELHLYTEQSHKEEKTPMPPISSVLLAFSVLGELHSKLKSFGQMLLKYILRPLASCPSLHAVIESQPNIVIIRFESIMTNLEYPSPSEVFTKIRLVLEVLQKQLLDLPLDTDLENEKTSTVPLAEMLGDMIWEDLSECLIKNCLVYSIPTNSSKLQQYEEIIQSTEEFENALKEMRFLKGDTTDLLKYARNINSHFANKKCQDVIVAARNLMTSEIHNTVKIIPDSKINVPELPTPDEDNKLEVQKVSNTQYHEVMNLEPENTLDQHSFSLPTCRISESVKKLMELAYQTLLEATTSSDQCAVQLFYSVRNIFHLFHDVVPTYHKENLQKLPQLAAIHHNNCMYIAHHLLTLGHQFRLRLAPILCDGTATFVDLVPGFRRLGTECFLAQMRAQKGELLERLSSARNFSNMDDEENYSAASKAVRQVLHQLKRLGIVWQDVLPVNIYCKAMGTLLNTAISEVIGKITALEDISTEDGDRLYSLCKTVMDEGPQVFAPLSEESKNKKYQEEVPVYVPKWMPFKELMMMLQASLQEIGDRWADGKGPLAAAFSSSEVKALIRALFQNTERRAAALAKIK
Assay: pull-down

binding result: binds
B1: His-tagged human Chmp4c (natural protein, UniProt Q96CF2 1-233, looked up)
chain: MSKLGKFFKGGGSSKSRAAPSPQEALVRLRETEEMLGKKQEYLENRIQREIALAKKHGTQNKRAALQALKRKKRFEKQLTQIDGTLSTIEFQREALENSHTNTEVLRNMGFAAKAMKSVHENMDLNKIDDLMQEITEQQDIAQEISEAFSQRVGFGDDFDEDELMAELEELEQEELNKKMTNIRLPNVPSSSLPAQPNRKPGMSSTARRSRAASSQRAEEEDDDIKQLAAWAT
